Experimental data as given in paper PMC2965215.

Molecular target: T1, ORF904 primase domain Y352A (Sulfolobus islandicus plasmid pRN1, UniProt Q54324 40-370, Y352A)
T1 sequence: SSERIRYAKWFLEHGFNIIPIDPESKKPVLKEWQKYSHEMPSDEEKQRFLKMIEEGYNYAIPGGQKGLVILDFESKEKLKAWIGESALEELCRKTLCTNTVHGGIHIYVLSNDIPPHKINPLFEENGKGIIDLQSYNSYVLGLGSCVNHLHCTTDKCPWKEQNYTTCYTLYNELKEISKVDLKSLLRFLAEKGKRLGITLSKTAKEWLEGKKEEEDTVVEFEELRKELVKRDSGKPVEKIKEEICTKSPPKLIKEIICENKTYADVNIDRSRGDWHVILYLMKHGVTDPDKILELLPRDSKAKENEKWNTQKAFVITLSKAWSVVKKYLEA
Assay: fluorescence anisotropy

Work on TCTTCTGTGCACTCTTC (ssDNA) [templatefluo] yielded a Kd of 1030 ± 80 nM.
